Here are results for six substances from PMC9104846.

In assay [1] the target is Cetuximab (anti-EGFR), full-length IgG. Nature of the assay: cross-linking.
The target of assay [2] is Trastuzumab (anti-Her2/neu), full-length IgG. Nature of the assay: cross-linking.

Consider “pAbBD-(GGS)7-SC-(GGS)4-pAbBD (designed binder)”, for which the percent of IgG labeled with a single SpyCatcher/SpyTag in assay [1] and in assay [2] was > 70% in each case.
Take “pAbBD-(GGS)7-SC-(GGS)7-pAbBD (designed binder)”: the percent of IgG labeled with a single SpyCatcher/SpyTag in assay [1] and in assay [2] was > 70% in each case.
Consider “pAbBD-(GGS)7-ST-(GGS)4-pAbBD (designed binder)”, for which the percent of IgG labeled with a single SpyCatcher/SpyTag in assay [1] and in assay [2] was > 70% throughout.
Regarding “pAbBD-(GGS)7-ST-(GGS)7-pAbBD (designed binder)”, the percent of IgG labeled with a single SpyCatcher/SpyTag in assay [1] and in assay [2] was > 70% in each case.
Turning to “photoreactive antibody-binding domain fused to SpyCatcher (designed binder)”, the maximum percentage of IgG conjugated to a single pAbBD-SC/ST in assay [2] is 40%.
In turn, “photoreactive antibody-binding domain fused to SpyTag (designed binder)” showed a maximum percentage of IgG conjugated to a single pAbBD-SC/ST in assay [1] of 40%.
